Measurements from publication PMC3972757.

Assays:
[1] = target: catalytic domain of AMSH, AMSH 219-424 E280A (human) (UniProt O95630); assay: ITC
[2] = target: catalytic domain of AMSH, AMSH 219-424 E280A (human) (UniProt O95630); assay: AUC
ubiquitin (Homo sapiens) = ubiquitin (Homo sapiens) (UniProt P0CG48); assay: biosensor; conditions: cited from earlier work

catalytic domain of AMSH, AMSH 219-424 E280A (human), sequence (O95630 219-424 E280A): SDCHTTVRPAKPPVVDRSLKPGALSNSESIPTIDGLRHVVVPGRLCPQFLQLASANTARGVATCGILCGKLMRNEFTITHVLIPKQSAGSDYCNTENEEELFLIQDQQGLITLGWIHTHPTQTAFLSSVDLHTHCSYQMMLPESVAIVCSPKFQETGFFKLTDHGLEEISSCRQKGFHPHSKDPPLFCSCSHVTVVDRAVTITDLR
STAM UIM, sequence (Q92783 168-193): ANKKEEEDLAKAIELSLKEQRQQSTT

| Substance | Kd [1] | dH [1] | stoichiometry N [2] | Kd (ubiquitin (Homo sapiens)) |
| --- | --- | --- | --- | --- |
| SH3 domain of STAM2 (from UniProt O75886 202-261) (domain or fragment) | 1.4 µM | -15.1 kcal/mol | 1 | – |
| STAM UIM (from UniProt Q92783) | – | – | – | 182 µM |
